Here are results for two molecules from US20020150536A1 (published 2002).

One may read the IC50 as the concentration that gives 50% inhibition. A low value points to inhibition by little substance.

The target of assay [1] is T1, αIIbβ3 (UniProt P08514 32-1039; P05106 27-788).
T1 construct: Bought purified protein, adsorbed to microtiter wells; also called integrin αIIbβ3; GPIIbIIIa
Put plainly: competition ELISA, displacement of biotinylated fibrinogen (6 nM) from immobilized αIIbβ3 (FIG. 4C). The method, then: An estimate of the maximum absorbance value was determined for each ligand/integrin pair in the absence of competitor. The baseline absorbance value was determined by adding 5 mM EDTA to the incubation buffer.
(§1) Briefly, proteins were dialyzed into 0.1 M NaHCO₃, 0.1 M NaCl. N-hydroxysuccinimido-LC-biotin (Pierce) was dissolved at 1 mg/mL in DMSO and added to the protein at a ratio of 0.1 mg biotin per 1 mg protein. The reaction was allowed to rotate at room temperature for 2 hours. Biotinylated proteins were dialyzed into phosphate-buffered saline and their concentrations determined by absorbance at 280 nm. […] Absorbance was read at 405 nm.

Assay [2] addresses T2, αvβ3 integrin (human, UniProt P06756 31-1048; P05106 27-788).
T2 construct: Native detergent-extracted heterodimer, adsorbed to microtiter wells; also called integrin αvβ3; purified human αvβ3
Put plainly: competition ELISA, displacement of biotinylated fibrinogen (6 nM) from immobilized αvβ3 (FIG. 4B). The method, then:
as §1
(In general: In an ELISA, binding on a coated surface is turned into a signal by an enzyme label.)

For assay [3], the target named is T2, αvβ3 integrin. Put plainly: competition ELISA, displacement of biotinylated vitronectin (10 nM) from immobilized αvβ3 (FIG. 4A). The protocol: as §1

T2 sequence (P06756 31-1048, form in doubt, chain 1 of 2): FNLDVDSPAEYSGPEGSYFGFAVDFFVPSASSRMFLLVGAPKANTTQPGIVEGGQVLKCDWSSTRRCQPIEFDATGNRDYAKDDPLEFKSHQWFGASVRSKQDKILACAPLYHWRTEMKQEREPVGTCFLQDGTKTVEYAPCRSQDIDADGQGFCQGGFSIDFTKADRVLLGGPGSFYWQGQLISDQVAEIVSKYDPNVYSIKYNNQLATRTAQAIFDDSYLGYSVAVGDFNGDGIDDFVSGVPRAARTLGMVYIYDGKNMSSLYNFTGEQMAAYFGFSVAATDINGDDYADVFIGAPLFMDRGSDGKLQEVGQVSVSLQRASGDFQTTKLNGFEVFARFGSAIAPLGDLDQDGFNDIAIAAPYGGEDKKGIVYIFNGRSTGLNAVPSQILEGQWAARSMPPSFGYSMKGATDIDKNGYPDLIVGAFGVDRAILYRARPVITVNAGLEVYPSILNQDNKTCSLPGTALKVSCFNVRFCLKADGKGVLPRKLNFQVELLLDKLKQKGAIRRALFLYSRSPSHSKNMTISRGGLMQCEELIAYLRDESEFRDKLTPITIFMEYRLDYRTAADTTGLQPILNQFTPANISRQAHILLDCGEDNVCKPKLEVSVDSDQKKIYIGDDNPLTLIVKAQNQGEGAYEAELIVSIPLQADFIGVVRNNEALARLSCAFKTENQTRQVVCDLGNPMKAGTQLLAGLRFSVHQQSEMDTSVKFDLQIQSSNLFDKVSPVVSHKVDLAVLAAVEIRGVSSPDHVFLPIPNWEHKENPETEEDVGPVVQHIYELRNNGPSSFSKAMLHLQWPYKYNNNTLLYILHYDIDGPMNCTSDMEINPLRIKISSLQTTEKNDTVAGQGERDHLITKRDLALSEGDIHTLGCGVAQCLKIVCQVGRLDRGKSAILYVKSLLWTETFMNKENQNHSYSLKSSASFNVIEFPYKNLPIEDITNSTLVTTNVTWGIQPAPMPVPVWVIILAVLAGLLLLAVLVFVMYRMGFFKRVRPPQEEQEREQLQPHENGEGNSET
T2 sequence (P05106 27-788, form in doubt, chain 2 of 2): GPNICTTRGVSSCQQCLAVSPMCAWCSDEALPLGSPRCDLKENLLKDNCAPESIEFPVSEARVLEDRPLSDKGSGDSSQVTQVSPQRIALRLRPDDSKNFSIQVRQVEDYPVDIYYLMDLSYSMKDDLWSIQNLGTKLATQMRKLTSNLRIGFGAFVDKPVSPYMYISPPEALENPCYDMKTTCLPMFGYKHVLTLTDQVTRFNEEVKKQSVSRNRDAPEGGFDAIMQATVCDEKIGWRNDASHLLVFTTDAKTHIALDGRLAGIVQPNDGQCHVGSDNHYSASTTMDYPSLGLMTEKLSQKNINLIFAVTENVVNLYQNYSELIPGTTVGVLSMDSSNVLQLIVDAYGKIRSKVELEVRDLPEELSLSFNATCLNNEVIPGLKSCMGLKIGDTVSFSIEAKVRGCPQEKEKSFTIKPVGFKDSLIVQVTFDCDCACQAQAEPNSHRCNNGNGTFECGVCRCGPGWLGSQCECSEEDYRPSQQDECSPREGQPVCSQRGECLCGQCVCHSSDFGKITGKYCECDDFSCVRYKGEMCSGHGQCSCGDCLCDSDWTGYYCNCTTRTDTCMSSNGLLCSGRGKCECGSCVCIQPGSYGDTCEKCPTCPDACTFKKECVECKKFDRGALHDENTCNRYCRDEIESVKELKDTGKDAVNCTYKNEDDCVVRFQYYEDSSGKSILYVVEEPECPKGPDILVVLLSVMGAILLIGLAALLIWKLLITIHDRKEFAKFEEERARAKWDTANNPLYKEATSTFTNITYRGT

B1: Fibrinogen (ligand)
chain 1: ADSGEGDFLAEGGGVRGPRVVERHQSACKDSDWPFCSDEDWNYKCPSGCRMKGLIDEVNQDFTNRINKLKNSLFEYQKNNKDSHSLTTNIMEILRGDFSSANNRDNTYNRVSEDLRSRIEVLKRKVIEKVQHIQLLQKNVRAQLVDMKRLEVDIDIKIRSCRGSCSRALAREVDLKDYEDQQKQLEQVIAKDLLPSRDRQHLPLIKMKPVPDLVPGNFKSQLQKVPPEWKALTDMPQMRMELERPGGNEITRGGSTSYGTGSETESPRNPSSAGSWNSGSSGPGSTGNRNPGSSGTGGTATWKPGSSGPGSTGSWNSGSSGTGSTGNQNPGSPRPGSTGTWNPGSSERGSAGHWTSESSVSGSTGQWHSESGSFRPDSPGSGNARPNNPDWGTFEEVSGNVSPGTRREYHTEKLVTSKGDKELRTGKEKVTSGSTTTTRRSCSKTVTKTVIGPDGHKEVTKEVVTSEDGSDCPEAMDLGTLSGIGTLDGFRHRHPDEAAFFDTASTGKTFPGFFSPMLGEFVSETESRGSESGIFTNTKESSSHHPGIAEFPSRGKSSSYSKQFTSSTSYNRGDSTFESKSYKMADEAGSEADHEGTHSTKRGHAKSRPV
chain 2: QGVNDNEEGFFSARGHRPLDKKREEAPSLRPAPPPISGGGYRARPAKAAATQKKVERKAPDAGGCLHADPDLGVLCPTGCQLQEALLQQERPIRNSVDELNNNVEAVSQTSSSSFQYMYLLKDLWQKRQKQVKDNENVVNEYSSELEKHQLYIDETVNSNIPTNLRVLRSILENLRSKIQKLESDVSAQMEYCRTPCTVSCNIPVVSGKECEEIIRKGGETSEMYLIQPDSSVKPYRVYCDMNTENGGWTVIQNRQDGSVDFGRKWDPYKQGFGNVATNTDGKNYCGLPGEYWLGNDKISQLTRMGPTELLIEMEDWKGDKVKAHYGGFTVQNEANKYQISVNKYRGTAGNALMDGASQLMGENRTMTIHNGMFFSTYDRDNDGWLTSDPRKQCSKEDGGGWWYNRCHAANPNGRYYWGGQYTWDMAKHGTDDGVVWMNWKGSWYSMRKMSMKIRPFFPQQ
chain 3: YVATRDNCCILDERFGSYCPTTCGIADFLSTYQTKVDKDLQSLEDILHQVENKTSEVKQLIKAIQLTYNPDESSKPNMIDAATLKSRKMLEEIMKYEASILTHDSSIRYLQEIYNSNNQKIVNLKEKVAQLEAQCQEPCKDTVQIHDITGKDCQDIANKGAKQSGLYFIKPLKANQQFLVYCEIDGSGNGWTVFQKRLDGSVDFKKNWIQYKEGFGHLSPTGTTEFWLGNEKIHLISTQSAIPYALRVELEDWNGRTSTADYAMFKVGPEADKYRLTYAYFAGGDAGDAFDGFDFGDDPSDKFFTSHNGMQFSTWDNDNDKFEGNCAEQDGSGWWMNKCHAGHLNGVYYQGGTYSKASTPNGYDNGIIWATWKTRWYSMKKTTMKIIPFNRLTIGEGQQHHLGGAKQAGDV
notes: also called biotinylated fibrinogen; unmodified fibrinogen
For B1, the values for the IC50 in assay [1] and in assay [2] were 15 nM and 43 nM, respectively.

B2: Vitronectin (ligand, human, UniProt P04004 20-478, looked up)
chain: DQESCKGRCTEGFNVDKKCQCDELCSYYQSCCTDYTAECKPQVTRGDVFTMPEDEYTVYDDGEEKNNATVHEQVGGPSLTSDLQAQSKGNPEQTPVLKPEEEAPAPEVGASKPEGIDSRPETLHPGRPQPPAEEELCSGKPFDAFTDLKNGSLFAFRGQYCYELDEKAVRPGYPKLIRDVWGIEGPIDAAFTRINCQGKTYLFKGSQYWRFEDGVLDPDYPRNISDGFDGIPDNVDAALALPAHSYSGRERVYFFKGKQYWEYQFQHQPSQEECEGSSLSAVFEHFAMMQRDSWEDIFELLFWGRTSAGTRQPQFISRDWHGVPGQVDAAMAGRIYISGMAPRPSLAKKQRFRHRNRKGYRSQRGHSRGRNQNSRRPSRATWLSLFSSEESNLGANNYDDYRMDWLVPATCEPIQSVFFFSGDKYYRVNLRTRRVDTVDPPYPRSIAQYWLGCPAPGHL
notes: also called biotinylated vitronectin; unmodified vitronectin
B2 registered an IC50 in assay [3] of 59 nM. This counts as double-digit nanomolar.
